According to the supplement of paper PMC10724198:
± gives the standard deviation of the averaged measurements.
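Further: PSI is a weighted mean of sequencing reads over stability bins, variants kept only with over 10 reads, mCherry proximal and sfGFP distal, peptide attached via GGGS linker.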

Each sequence was assayed on Saccharomyces cerevisiae (assay: protein stability index of tFT-peptide fusion (C-terminal peptide) (PSI (0-1 scale)); higher = more stable (slower turnover)). Conditions: genetic background: wild type; temperature: 30 C.
Method: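 Multiplexed protein stability (MPS) profiling in S. cerevisiae. Random 12-aa peptides (tFT-X12 library) are fused to the C-terminus of a sfGFP-mCherry tandem fluorescent timer, after mCherry and a GGGS linker. Cells are FACS-sorted into 8 mCherry/sfGFP bins and deep-sequenced. The protein stability index (PSI) is the read-weighted bin average, scaled from 0 (unstable) to 1 (stable). Only peptides with >10 reads are reported; cells were grown at 30 °C in SC-His with glucose.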
AADVALQFKPRT was tested, and the protein stability index was 0.658 ± 0.027. For AAFHSSSAFFFN, the protein stability index was 0.718 ± 0.019. Work on AAGAGAPRRPLL yielded a protein stability index of 0.683 ± 0.02. AAGGASRHLSGS gave a protein stability index of 0.71 ± 0.09. AAIVVRLCSLLR was tested, and the protein stability index was 0.593 ± 0.0091. AALSNRGIHWWK was tested, and the protein stability index was 0.732 ± 0.018. AAPGMIFRDPAQ showed a protein stability index of 0.739 ± 0.18. For AAPPPRRPCPPL, the protein stability index was 0.678 ± 0.038. For AAQRGSTMARGG, the protein stability index was 0.704 ± 0.064. AARRPARACGGQ showed a protein stability index of 0.632 ± 0.025. AAWSGGGAGCWT was tested, and the protein stability index was 0.708 ± 0.041. With ACLGVSTPSLGI the protein stability index was 0.672 ± 0.027. In the case of ACLIHWVVSGAR, the protein stability index is reported as 0.677 ± 0.016. ACPCTLCMALSR showed a protein stability index of 0.6476 ± 0.0014. For ACREVAGAPGGL, the protein stability index was 0.671 ± 0.035. ACVRVVRLGCGW showed a protein stability index of 0.616 ± 0.063. With ACWGCGVGRGEV the protein stability index was 0.814 ± 0.12. ADKNQQTVNWRR was tested, and the protein stability index was 0.6956 ± 0.0019. With ADLPALGSCGSY the protein stability index was 0.631 ± 0.013. For ADPPLFYPPSHT, the protein stability index was 0.69 ± 0.021. In the case of ADWGSRRPSRCP, the protein stability index is reported as 0.68915 ± 0.00051. AEAFFRIVRTVR gave a protein stability index of 0.721 ± 0.034. AEAKAVKSVSVR was tested, and the protein stability index was 0.638 ± 0.042. For AEARTRYVPRPR, the protein stability index was 0.686 ± 0.02. AEEAEVAGPRHC was tested, and the protein stability index was 0.777 ± 0.18. With AEFMRGVFKVSC the protein stability index was 0.6816 ± 0.0036. AELSTRPPAPPL gave a protein stability index of 0.715 ± 0.096. AERSVRGTTPGG was tested, and the protein stability index was 0.632 ± 0.051. For AETESASRCLHW, the protein stability index was 0.776 ± 0.026. Sequence AEWGGSTGGCWG has a protein stability index of 0.722 ± 0.15. AFASVLPSSLSS gave a protein stability index of 0.641 ± 0.085. AFDPGLPPRRSD gave a protein stability index of 0.755 ± 0.011. For AFGRLNTWFCFP, the protein stability index was 0.719 ± 0.037. AFLVGDVFGRLL gave a protein stability index of 0.602 ± 0.016. In the case of AFMPGLLGDTYE, the protein stability index is reported as 0.662 ± 0.022. For AFMVFCRSLLAP, the protein stability index was 0.684 ± 0.014. Sequence AFRCGGGPGDFA has a protein stability index of 0.6513 ± 0.0027. AFVLTSRVFFPL was tested, and the protein stability index was 0.721 ± 0.053. For AFWLPAAVPLIF, the protein stability index was 0.584 ± 0.022. In the case of AFYFGQFEFWRC, the protein stability index is reported as 0.698 ± 0.034. In the case of AGAATGAGGLQG, the protein stability index is reported as 0.672 ± 0.037. AGCGGIWGVWVL was tested, and the protein stability index was 0.701 ± 0.072. In the case of AGEERWGGCLTG, the protein stability index is reported as 0.653 ± 0.021. For AGGAEAVRRAGG, the protein stability index was 0.675 ± 0.019. With AGGGGGTRVHWR the protein stability index was 0.682 ± 0.013. In the case of AGGGPGLEARSL, the protein stability index is reported as 0.612 ± 0.017. Sequence AGGGWAVQVGMG has a protein stability index of 0.684 ± 0.042. For AGGPGWGALVGA, the protein stability index was 0.645 ± 0.047. With AGGRGGGGGGDA the protein stability index was 0.663 ± 0.0071. Work on AGGSGGGRDRLV yielded a protein stability index of 0.694 ± 0.024. Work on AGGSVGEAGSEG yielded a protein stability index of 0.649 ± 0.026. Sequence AGGWLGAEGCGG has a protein stability index of 0.78 ± 0.033. Sequence AGICLRSFRCFW has a protein stability index of 0.672 ± 0.0079. For AGLGGGARQGAL, the protein stability index was 0.672 ± 0.024. AGLLFDSPPLLV was tested, and the protein stability index was 0.725 ± 0.034. AGPPRTAVSPPL was tested, and the protein stability index was 0.675 ± 0.016. AGQGSISCWSKD showed a protein stability index of 0.707 ± 0.045. Sequence AGRGGSPRFVGR has a protein stability index of 0.657 ± 0.053. Sequence AGRGRAIGAGFS has a protein stability index of 0.649 ± 0.054. In the case of AGRRGVNGGGWG, the protein stability index is reported as 0.686 ± 0.039. AGRRTGSRESEQ was tested, and the protein stability index was 0.612 ± 0.061. With AGSAGKWCWCGG the protein stability index was 0.711 ± 0.039. For AGSALSSAYTLM, the protein stability index was 0.703 ± 0.13. AGSSFDLGSGYS was tested, and the protein stability index was 0.724 ± 0.083. AGSSGVRLSEFP gave a protein stability index of 0.671 ± 0.11. Sequence AGSYERFSRGHR has a protein stability index of 0.688 ± 0.034. AGVLTRGNCCGG showed a protein stability index of 0.6885 ± 0.005. With AGVPCLSVPPLG the protein stability index was 0.683 ± 0.031. AGVTRALSVFLL was tested, and the protein stability index was 0.54 ± 0.043. Work on AGWCWVWGVELV yielded a protein stability index of 0.687 ± 0.04. In the case of AGWGGIWGLWVL, the protein stability index is reported as 0.715 ± 0.11. AGYEEWVRDARV was tested, and the protein stability index was 0.73 ± 0.0075. AGYENKAENKSV gave a protein stability index of 0.656 ± 0.011. AGYGGILRSRGG was tested, and the protein stability index was 0.698 ± 0.059. AHMAQQNEQRVK gave a protein stability index of 0.748 ± 0.071. AHQRSRRPKPSR gave a protein stability index of 0.65 ± 0.072. Work on AHSPPTRISPTH yielded a protein stability index of 0.75 ± 0.097. In the case of AHVLQRVRLLSR, the protein stability index is reported as 0.618 ± 0.023. For AIACYLGLTSYP, the protein stability index was 0.647 ± 0.021. In the case of AIAGSLSYCWDD, the protein stability index is reported as 0.678 ± 0.022. AIANIIERFTLL gave a protein stability index of 0.63 ± 0.066. With AILSDGLTHWGL the protein stability index was 0.736 ± 0.058. Work on AIPAVRFCRTLR yielded a protein stability index of 0.643 ± 0.055. For AIRENISIRLNC, the protein stability index was 0.482 ± 0.026. For AKDSVDYKEGES, the protein stability index was 0.6602 ± 0.0041. AKEERKVIRKMK was tested, and the protein stability index was 0.659 ± 0.063. AKETSINKKALI showed a protein stability index of 0.6903 ± 0.0047. Sequence AKFERRTIGCSA has a protein stability index of 0.605 ± 0.0042. With AKKKKKKIKTKH the protein stability index was 0.8 ± 0.14. For AKSCNSVHALRT, the protein stability index was 0.668 ± 0.11. ALASLPPQPHSP showed a protein stability index of 0.665 ± 0.047. Work on ALCQEFAALEPR yielded a protein stability index of 0.726 ± 0.051. Sequence ALFKESMLSTCA has a protein stability index of 0.564 ± 0.022. ALLKGASCRTAS gave a protein stability index of 0.696 ± 0.03. Work on ALLPTLFNSGAV yielded a protein stability index of 0.736 ± 0.015. In the case of ALPLLPPHSLPP, the protein stability index is reported as 0.617 ± 0.011. With ALPLRFSSPGPS the protein stability index was 0.659 ± 0.0068. Sequence ALPPLLLLPASP has a protein stability index of 0.691 ± 0.0093. ALPPPIPHPLFL gave a protein stability index of 0.701 ± 0.019. In the case of ALPPPLPPPAGP, the protein stability index is reported as 0.699 ± 0.077. In the case of ALQLLNPSLLKY, the protein stability index is reported as 0.786 ± 0.06. ALQVKWRGCLRF showed a protein stability index of 0.733 ± 0.099. Sequence ALRMVRHCPVNT has a protein stability index of 0.667 ± 0.029. With ALSLARVSSPLF the protein stability index was 0.707 ± 0.06. In the case of ALSPAPGTSLMR, the protein stability index is reported as 0.69 ± 0.016. Work on ALSRRPAAGDGP yielded a protein stability index of 0.641 ± 0.024. In the case of ALTGYYNQYRYE, the protein stability index is reported as 0.745 ± 0.025. In the case of ALVAGGRGRRLW, the protein stability index is reported as 0.692 ± 0.087. Work on ALVAPAYYWGDV yielded a protein stability index of 0.745 ± 0.059. With ALVRGGYLFFPP the protein stability index was 0.663 ± 0.026. With ALWQADTRSVNN the protein stability index was 0.64 ± 0.097. In the case of ALYISLRELACP, the protein stability index is reported as 0.548 ± 0.018. AMFFAFSRSLMS showed a protein stability index of 0.639 ± 0.026. In the case of AMLDSPRHLPSA, the protein stability index is reported as 0.679 ± 0.041. ANSGSRSSRVVG was tested, and the protein stability index was 0.643 ± 0.1. APAPSPPPPPPD showed a protein stability index of 0.562 ± 0.037. Work on APDRPTPSLSSP yielded a protein stability index of 0.7057 ± 0.0053. Sequence APFRVALPGVCG has a protein stability index of 0.623 ± 0.02. APHPYPPTPPAP showed a protein stability index of 0.725 ± 0.014. APILLFIEPLPP was tested, and the protein stability index was 0.5631 ± 0.0037. APLPHAASSLPA gave a protein stability index of 0.6982 ± 0.0046. For APPAHPARSHTP, the protein stability index was 0.69 ± 0.019. Work on APPARGTGRASL yielded a protein stability index of 0.738 ± 0.017. APPARSTPPPRP showed a protein stability index of 0.712 ± 0.045. In the case of APPHPPPPLPPP, the protein stability index is reported as 0.6366 ± 0.0052. Work on APPLPPLFPPSP yielded a protein stability index of 0.677 ± 0.047. APPLPPPPLDTS was tested, and the protein stability index was 0.729 ± 0.011. In the case of APPPFLCSPFVA, the protein stability index is reported as 0.698 ± 0.0092. APPPHPRHPTHS showed a protein stability index of 0.777 ± 0.089. With APPPMPLPLIPL the protein stability index was 0.633 ± 0.04. APPPPHSSHPPP was tested, and the protein stability index was 0.713 ± 0.027. APPPPLLPHPTP showed a protein stability index of 0.736 ± 0.028. In the case of APPPPPPAPQPP, the protein stability index is reported as 0.619 ± 0.067. APPPPPPSPRVP gave a protein stability index of 0.71 ± 0.047. APPQFPLTPPPP was tested, and the protein stability index was 0.647 ± 0.011. In the case of APPRPPPRPHPP, the protein stability index is reported as 0.571 ± 0.063. With APPVAKHHAGKD the protein stability index was 0.647 ± 0.016. Sequence APRPRHFPTLPS has a protein stability index of 0.812 ± 0.077. With APRRVAVAGETS the protein stability index was 0.707 ± 0.043. APSPPPDPATPR showed a protein stability index of 0.672 ± 0.026. In the case of APSSLLTPPACI, the protein stability index is reported as 0.734 ± 0.083. Sequence APSSPRSSTPRP has a protein stability index of 0.763 ± 0.085. Work on APTGGTNVRRPE yielded a protein stability index of 0.726 ± 0.024. APTPPPPLSPRS gave a protein stability index of 0.69 ± 0.034. In the case of APTVPQILVRHA, the protein stability index is reported as 0.6736 ± 0.0047. APVGLTFNSSLL showed a protein stability index of 0.7107 ± 0.0032.
